Article PMC9352680, “A comprehensive thermodynamic model for RNA binding by the Saccharomyces cerevisiae Pumilio protein PUF4”

T1: PUF4 RNA-binding domain (Saccharomyces cerevisiae, UniProt P25339 537-888)
T1 sequence: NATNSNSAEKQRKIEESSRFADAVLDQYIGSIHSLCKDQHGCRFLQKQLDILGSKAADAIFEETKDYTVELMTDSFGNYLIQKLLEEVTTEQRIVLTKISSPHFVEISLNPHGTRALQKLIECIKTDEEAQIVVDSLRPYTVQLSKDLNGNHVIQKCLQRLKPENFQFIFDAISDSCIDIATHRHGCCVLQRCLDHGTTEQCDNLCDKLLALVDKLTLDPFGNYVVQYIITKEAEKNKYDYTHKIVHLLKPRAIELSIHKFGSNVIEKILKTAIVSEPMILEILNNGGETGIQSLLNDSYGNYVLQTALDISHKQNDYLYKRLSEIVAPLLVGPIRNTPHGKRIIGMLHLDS


Target: T1, PUF4 RNA-binding domain
Experiment: Mg; RNA-MaP; 20 mM Na-HEPES pH 7.4, 30 mM KOAc, 0.75 mM MgCl2, 0.1% Tween-20, 5% glycerol, 0.1 mg/mL BSA, 2 mM DTT; 25 C; 0.0125-409.6 nM protein
Details: tags: N-His6-TEV cleaved; C-SNAP kept, Cy3B-labelled; label: tethered on chip by stalled RNA polymerase

Row | Binder | Kd
1 | UCUCUUUAUAUUUUUAUCUCUU (ssRNA) [Ib_S1_P5E.1_K5.1_C5.1_H5.1_[G2A]_A5.1_[A7T]_F5.1_T5.1] | 742 nM
2 | UCUCUUUGCAAUAUUAUCUCUU (ssRNA) [Ib_S1_P5E.1_K5.1_C5.1_H5.1_[T3C]_A5.1_[T5A]_F5.1_T5.1] | 1370 nM
3 | UCUCUUUAUAUUCUUAUCUCUU (ssRNA) [Ib_S1_P5E.1_K5.1_C5.1_H5.1_[G2A]_A5.1_[A7C]_F5.1_T5.1] | 801 nM
4 | Id_ii_S4_P4E.4_K4.3_C4.2_[C-2G]_H4.3_A4.1_F4.1_T4.2_[G10C]_[T11C] (ssRNA) RNA: UUUGACAACUGAUCGUUCUUUCUGUACACUAUUACCUUCUUUCUCGAUCAGUUGUCUUU | 1.02 nM
5 | Id_ii_S4_P4E.4_K4.3_C4.2_H4.3_A4.1_F4.1_T4.2_[G10C]_[T11A] (ssRNA) RNA: UUUGACAACUGAUCGUUCUUUCUCUACACUAUUACAUUCUUUCUCGAUCAGUUGUCUUU | 944 nM
6 | Id_ii_S4_P4E.4_K4.3_C4.2_[C-2A]_H4.3_A4.1_F4.1_T4.2_[G10A] (ssRNA) RNA: UUUGACAACUGAUCGUUCUUUCUAUACACUAUUAAUUUCUUUCUCGAUCAGUUGUCUUU | 28.2 nM
7 | Id_ii_S4_P4E.4_K4.3_C4.2_[T-1A]_H4.3_A4.1_F4.1_T4.2_[G10C] (ssRNA) RNA: UUUGACAACUGAUCGUUCUUUCUCAACACUAUUACUUUCUUUCUCGAUCAGUUGUCUUU | > 2300 nM
8 | Id_ii_S4_P4E.4_K4.3_C4.2_[C-2T]_[T-1C]_H4.3_A4.1_F4.1_T4.2_[G10A]_[T11C] (ssRNA) RNA: UUUGACAACUGAUCGUUCUUUCUUCACACUAUUAACUUCUUUCUCGAUCAGUUGUCUUU | 2110 nM
9 | Id_ii_S4_P4E.4_K4.3_C4.2_[C-2A]_H4.3_A4.1_F4.1_T4.2_[G10C]_[T11C] (ssRNA) RNA: UUUGACAACUGAUCGUUCUUUCUAUACACUAUUACCUUCUUUCUCGAUCAGUUGUCUUU | 14.9 nM
10 | Id_ii_S4_P4E.4_K4.3_C4.2_[T-1C]_H4.3_A4.1_F4.1_T4.2_[G10C] (ssRNA) RNA: UUUGACAACUGAUCGUUCUUUCUCCACACUAUUACUUUCUUUCUCGAUCAGUUGUCUUU | > 2300 nM
11 | Id_ii_S4_P4E.4_K4.3_C4.2_[C-2T]_[T-1A]_H4.3_A4.1_F4.1_T4.2_[G10T]_[T11C] (ssRNA) RNA: UUUGACAACUGAUCGUUCUUUCUUAACACUAUUAUCUUCUUUCUCGAUCAGUUGUCUUU | > 2300 nM
12 | Id_ii_S4_P4E.4_K4.3_C4.2_[T-1G]_H4.3_A4.1_F4.1_T4.2_[G10C]_[T11C] (ssRNA) RNA: UUUGACAACUGAUCGUUCUUUCUCGACACUAUUACCUUCUUUCUCGAUCAGUUGUCUUU | > 2300 nM
13 | Id_ii_S4_P4E.4_K4.3_C4.2_[T-1G]_H4.3_A4.1_F4.1_T4.2_[G10C]_[T11A] (ssRNA) RNA: UUUGACAACUGAUCGUUCUUUCUCGACACUAUUACAUUCUUUCUCGAUCAGUUGUCUUU | > 2300 nM
14 | Id_ii_S4_P4E.4_K4.3_C4.2_[T-1A]_H4.3_A4.1_F4.1_T4.2 (ssRNA) RNA: UUUGACAACUGAUCGUUCUUUCUCAACACUAUUAGUUUCUUUCUCGAUCAGUUGUCUUU | > 2300 nM
15 | Id_ii_S4_P4E.4_K4.3_C4.2_[T-1G]_H4.3_A4.1_F4.1_T4.2_[G10T] (ssRNA) RNA: UUUGACAACUGAUCGUUCUUUCUCGACACUAUUAUUUUCUUUCUCGAUCAGUUGUCUUU | > 2300 nM
16 | Id_ii_S4_P4E.4_K4.3_C4.2_[T-1C]_H4.3_A4.1_F4.1_T4.2_[G10A] (ssRNA) RNA: UUUGACAACUGAUCGUUCUUUCUCCACACUAUUAAUUUCUUUCUCGAUCAGUUGUCUUU | > 2300 nM
17 | Id_ii_S4_P4E.4_K4.3_C4.2_[C-2T]_[T-1A]_H4.3_A4.1_F4.1_T4.2_[G10C]_[T11A] (ssRNA) RNA: UUUGACAACUGAUCGUUCUUUCUUAACACUAUUACAUUCUUUCUCGAUCAGUUGUCUUU | > 2300 nM
18 | Id_ii_S4_P4E.4_K4.3_C4.2_H4.3_A4.1_F4.1_T4.2_[G10A]_[T11C] (ssRNA) RNA: UUUGACAACUGAUCGUUCUUUCUCUACACUAUUAACUUCUUUCUCGAUCAGUUGUCUUU | 1210 nM
19 | Id_ii_S4_P4E.4_K4.3_C4.2_[C-2G]_H4.3_A4.1_F4.1_T4.2_[G10A]_[T11C] (ssRNA) RNA: UUUGACAACUGAUCGUUCUUUCUGUACACUAUUAACUUCUUUCUCGAUCAGUUGUCUUU | 1.54 nM
20 | Id_ii_S4_P4E.4_K4.3_C4.2_[T-1A]_H4.3_A4.1_F4.1_T4.2_[T11C] (ssRNA) RNA: UUUGACAACUGAUCGUUCUUUCUCAACACUAUUAGCUUCUUUCUCGAUCAGUUGUCUUU | > 2300 nM
21 | Id_ii_S4_P4E.4_K4.3_C4.2_[C-2T]_[T-1C]_H4.3_A4.1_F4.1_T4.2_[G10T]_[T11C] (ssRNA) RNA: UUUGACAACUGAUCGUUCUUUCUUCACACUAUUAUCUUCUUUCUCGAUCAGUUGUCUUU | > 2300 nM
22 | Id_ii_S4_P4E.4_K4.3_C4.2_[C-2T]_[T-1A]_H4.3_A4.1_F4.1_T4.2 (ssRNA) RNA: UUUGACAACUGAUCGUUCUUUCUUAACACUAUUAGUUUCUUUCUCGAUCAGUUGUCUUU | > 2300 nM

Row | Binder | Kd
23 | Id_ii_S4_P4E.4_K4.3_C4.2_[C-2T]_[T-1A]_H4.3_A4.1_F4.1_T4.2_[G10A]_[T11C] (ssRNA) RNA: UUUGACAACUGAUCGUUCUUUCUUAACACUAUUAACUUCUUUCUCGAUCAGUUGUCUUU | > 2300 nM
24 | Id_ii_S4_P4E.4_K4.3_C4.2_[C-2G]_H4.3_A4.1_F4.1_T4.2_[G10A]_[T11A] (ssRNA) RNA: UUUGACAACUGAUCGUUCUUUCUGUACACUAUUAAAUUCUUUCUCGAUCAGUUGUCUUU | 0.535 nM
25 | Id_ii_S4_P4E.4_K4.3_C4.2_[C-2A]_[T-1C]_H4.3_A4.1_F4.1_T4.2_[G10C] (ssRNA) RNA: UUUGACAACUGAUCGUUCUUUCUACACACUAUUACUUUCUUUCUCGAUCAGUUGUCUUU | > 2300 nM
26 | Id_ii_S4_P4E.4_K4.3_C4.2_[C-2T]_[T-1A]_H4.3_A4.1_F4.1_T4.2_[G10T]_[T11A] (ssRNA) RNA: UUUGACAACUGAUCGUUCUUUCUUAACACUAUUAUAUUCUUUCUCGAUCAGUUGUCUUU | 716 nM
27 | Id_ii_S4_P4E.4_K4.3_C4.2_[T-1C]_H4.3_A4.1_F4.1_T4.2_[G10C]_[T11C] (ssRNA) RNA: UUUGACAACUGAUCGUUCUUUCUCCACACUAUUACCUUCUUUCUCGAUCAGUUGUCUUU | 1360 nM
28 | Id_ii_S4_P4E.4_K4.3_C4.2_[C-2G]_H4.3_A4.1_F4.1_T4.2_[G10T] (ssRNA) RNA: UUUGACAACUGAUCGUUCUUUCUGUACACUAUUAUUUUCUUUCUCGAUCAGUUGUCUUU | 0.388 nM
29 | Id_ii_S4_P4E.4_K4.3_C4.2_[T-1C]_H4.3_A4.1_F4.1_T4.2_[G10T]_[T11A] (ssRNA) RNA: UUUGACAACUGAUCGUUCUUUCUCCACACUAUUAUAUUCUUUCUCGAUCAGUUGUCUUU | 728 nM
30 | Id_ii_S4_P4E.4_K4.3_C4.2_[C-2G]_H4.3_A4.1_F4.1_T4.2_[G10T]_[T11A] (ssRNA) RNA: UUUGACAACUGAUCGUUCUUUCUGUACACUAUUAUAUUCUUUCUCGAUCAGUUGUCUUU | 0.647 nM
31 | UCUCUUUAUAUUGUUAUCUCUU (ssRNA) [Ib_S1_P5E.1_K5.1_C5.1_H5.1_[G2A]_A5.1_[A7G]_F5.1_T5.1] | 846 nM
32 | Id_ii_S4_P5E.2_K5.1_C5.2_[C-2G]_[T-1C]_H5.1_A5.1_F5.1_T5.2_[T11A]_[A12T] (ssRNA) RNA: UUUGACAACUGAUCGUUCUUUCUGCUGUAUUAUUAAUUUCUUUCUCGAUCAGUUGUCUUU | 3.13 nM
33 | Id_ii_S4_P5E.2_K5.1_C5.2_[C-2G]_[T-1C]_H5.1_A5.1_F5.1_T5.2_[A12C] (ssRNA) RNA: UUUGACAACUGAUCGUUCUUUCUGCUGUAUUAUUAUCUUCUUUCUCGAUCAGUUGUCUUU | 5.29 nM
34 | Id_ii_S4_P5E.2_K5.1_C5.2_[C-2T]_[T-1G]_H5.1_A5.1_F5.1_T5.2_[T11G]_[A12T] (ssRNA) RNA: UUUGACAACUGAUCGUUCUUUCUUGUGUAUUAUUAGUUUCUUUCUCGAUCAGUUGUCUUU | 1.51 nM
35 | Id_ii_S4_P5E.2_K5.1_C5.2_[C-2T]_[T-1G]_H5.1_A5.1_F5.1_T5.2_[T11G]_[A12C] (ssRNA) RNA: UUUGACAACUGAUCGUUCUUUCUUGUGUAUUAUUAGCUUCUUUCUCGAUCAGUUGUCUUU | 2.47 nM
36 | Id_ii_S4_P5E.2_K5.1_C5.2_[C-2G]_H5.1_A5.1_F5.1_T5.2_[A12T] (ssRNA) RNA: UUUGACAACUGAUCGUUCUUUCUGUUGUAUUAUUAUUUUCUUUCUCGAUCAGUUGUCUUU | 1.91 nM
37 | Id_ii_S4_P5E.2_K5.1_C5.2_[C-2T]_[T-1C]_H5.1_A5.1_F5.1_T5.2_[T11A]_[A12C] (ssRNA) RNA: UUUGACAACUGAUCGUUCUUUCUUCUGUAUUAUUAACUUCUUUCUCGAUCAGUUGUCUUU | 2.92 nM
38 | Id_ii_S4_P5E.2_K5.1_C5.2_[C-2G]_H5.1_A5.1_F5.1_T5.2_[T11A] (ssRNA) RNA: UUUGACAACUGAUCGUUCUUUCUGUUGUAUUAUUAAAUUCUUUCUCGAUCAGUUGUCUUU | 6.57 nM
39 | Id_ii_S4_P5E.2_K5.1_C5.2_[C-2T]_[T-1G]_H5.1_A5.1_F5.1_T5.2_[A12C] (ssRNA) RNA: UUUGACAACUGAUCGUUCUUUCUUGUGUAUUAUUAUCUUCUUUCUCGAUCAGUUGUCUUU | 1.56 nM
40 | Id_ii_S4_P5E.2_K5.1_C5.2_[C-2T]_[T-1G]_H5.1_A5.1_F5.1_T5.2_[T11A]_[A12T] (ssRNA) RNA: UUUGACAACUGAUCGUUCUUUCUUGUGUAUUAUUAAUUUCUUUCUCGAUCAGUUGUCUUU | 1.56 nM
41 | Id_ii_S4_P5E.2_K5.1_C5.2_[C-2T]_[T-1G]_H5.1_A5.1_F5.1_T5.2_[T11A]_[A12C] (ssRNA) RNA: UUUGACAACUGAUCGUUCUUUCUUGUGUAUUAUUAACUUCUUUCUCGAUCAGUUGUCUUU | 3.09 nM
42 | Id_ii_S4_P5E.2_K5.1_C5.2_[C-2T]_[T-1C]_H5.1_A5.1_F5.1_T5.2_[T11A]_[A12G] (ssRNA) RNA: UUUGACAACUGAUCGUUCUUUCUUCUGUAUUAUUAAGUUCUUUCUCGAUCAGUUGUCUUU | 34.5 nM
43 | Id_ii_S4_P5E.2_K5.1_C5.2_[C-2T]_[T-1A]_H5.1_A5.1_F5.1_T5.2_[T11A]_[A12C] (ssRNA) RNA: UUUGACAACUGAUCGUUCUUUCUUAUGUAUUAUUAACUUCUUUCUCGAUCAGUUGUCUUU | 9.12 nM
44 | Id_ii_S4_P5E.2_K5.1_C5.2_[C-2T]_[T-1A]_H5.1_A5.1_F5.1_T5.2_[T11G]_[A12T] (ssRNA) RNA: UUUGACAACUGAUCGUUCUUUCUUAUGUAUUAUUAGUUUCUUUCUCGAUCAGUUGUCUUU | 4.76 nM
